Test results as given in paper PMC12827578.

Target: CTLA4-FRB*-HA (UniProt P16410)

CTLA4-FH protein level by Western blot after Dox induction of FF-USP15 WT (18 h) and A/C 500 nM (24 h): > 2 fold
Substance: FLAG-FKBP-USP15 WT (from UniProt P62942 2-108) (enzyme)
